Measurements: patent publication US20110142761A1 (AbbVie / Abbott, published 2011)

Columns and labels:
[1] = biological target: T1, human IL-1β (human, UniProt P01584 117-269); assay: SPR (Biacore 3000), antibody captured, human IL-1β as analyte, 25 C
T1 construct: it has 153 residues and begins APVRS; also called hIL-1β; recombinant purified human IL-1β
Procedure: The BIACORE® assay (Biacore, Inc., Piscataway, N.J.) determines the affinity of antibodies with kinetic measurements of on-, off-rate constants. Binding of antibodies to recombinant purified human IL-1β was determined by surface plasmon resonance-based measurements with a Biacore™ 3000 instrument (Biacore™ AB, Uppsala, Sweden) using running HBS-EP (10 mM HEPES [pH 7.4], 150 mM NaCl, 3 mM EDTA, and 0.005% surfactant P20) at 25° C. All chemicals were obtained from Biacore® AB (Uppsala, Sweden) unless otherwise stated. Approximately 5,000 RU of goat anti-mouse IgG, (Fcγ), fragment specific polyclonal antibody (Pierce Biotechnology Inc, Rockford, Ill.) diluted in 10 mM sodium acetate (pH 4.5) was directly immobilized across a CM5 research grade biosensor chip using a standard amine coupling kit according to manufacturer's instructions and procedures at 25 μg/ml. Unreacted moieties on the biosensor surface were blocked with ethanolamine. Modified carboxymethyl dextran surface in flowcell 2 and 4 was used as a reaction surface. Unmodified carboxymethyl dextran without goat anti-mouse IgG in flow cell 1 and 3 was used as the reference surface. For kinetic analysis, rate equations derived from the 1:1 Langmuir binding model were fitted simultaneously to association and dissociation phases of all eight injections (using global fit analysis) with the use of Biaevaluation 4.0.1 software. Purified antibodies were diluted in HEPES-buffered saline for capture across goat anti-mouse IgG specific reaction surfaces. Mouse antibodies to be captured as a ligand (25 μg/ml) were injected over reaction matrices at a flow rate of 5 μl/minute. The association and dissociation rate constants, kₒₙ (unit M⁻¹s⁻¹) and koff (unit s⁻¹) were determined under a continuous flow rate of 25 μl/minute. Rate constants were derived by making kinetic binding measurements at ten different antigen concentrations ranging from 10-200 nM. The equilibrium dissociation constant (unit M) of the reaction between antibodies and the target antigen was then calculated from the kinetic rate constants by the following formula: KD=koff/kₒₙ. Binding is recorded as a function of time and kinetic rate constants are calculated. In this assay, on-rates as fast as 10⁶M⁻¹s⁻¹ and off-rates as slow as 10⁻⁶s⁻¹ can be measured.

[2] = biological target: T1, human IL-1β; assay: cell-based or functional assay
[3] = biological target: T1, human IL-1β; assay: ELISA; antibody captured on anti-human Fc, biotinylated human IL-1β titrated
Procedure: To determine if anti-IL-1β mAbs bind to human IL-1β, ELISA plates (Nunc, MaxiSorp, Rochester, N.Y.) were incubated overnight at 4° C. with anti-human Fc antibody diluted in Pierce Coat buffer at 2 μg/ml (Jackson Immunoresearch, West Grove, Pa.). Plates were washed five times in washing buffer (PBS containing 0.05% Tween 20), and blocked for 1 hour at 25° C. with 200 μl per well superblock blocking buffer (Thermo scientific, #37515). Blocking buffer was removed by tapping plates, and 2 μg/ml of each antibody in PBS containing 10% superblock, 0.5% tween-20 was added to the wells at 100 μl per well and incubated at 25° C. for 1 hour. The wells were washed five times in 1×PBST, and 1 μg/ml biotinylated antigen was titrated at 1:6 serial dilutions (for a range of μg to pg in PBS containing 10% superblock, 0.05% tween 20). Each dilution of antigen was then added to the plates and incubated for 1 hour at 25° C. The wells were washed five times in 1×PBST and incubated for 1 hour at 25° C. with polyHRP streptavidin (KPL #474-3000, Gaithersburg, Md.). The wells were washed five times in 1×PBST, and 100 μl of ULTRA-TMB ELISA (Pierce, Rockford, Ill.) were added per well. Following color development the reaction was stopped with 1N HCL and absorbance at 450 nm was measured. The results are shown in Table 9, and the numerical value indicating binding of human anti-IL-1β antibodies to human IL-1β.

B1: humanized anti-human IL-1β antibody 1B12.2 (antibody, V domains shown)
VH: EVQLQESGPGLVKPSETLSLTCTVSGFSLSDYGVSWIRQPPGKGLEWLGLIWGGGDTYYNSPLKSRLTISKDNSKSQVSLKLSSVTAADTAVYYCAKQRTLWGYDLYGMDYWGQGTLVTVSS
VL: ETTVTQSPSSLSASVGDRVTITCITSTDIDVDMNWYQQKPGKPPKLLISQGNTLRPGVPSRFSSSGSGTDFTFTISSLQPEDFATYYCLQSDNLPLTFGQGTKLEIK
notes: Cloned into IgG expression vectors and made as full-length humanized antibody; also called h1B12VH.1a/h1B12VL.1b; combination 2
- Kd [1]: 0.147 nM
- koff [1]: 0.0009 s⁻¹
- kon [1]: 6.13e+06 M⁻¹ s⁻¹
- Potency on Human IL-1β IC50 (pM); inhibition of IL-1β-induced IL-8 production by MRC-5 cells [2]: 146 pM
- EC50 [3]: 0.0376 nM

B2: humanized anti-human IL-1β antibody 1B12.3 (antibody, V domains shown)
VH: EVQLQESGPGLVKPSETLSLTCTVSGFSLSDYGVSWIRQPPGKGLEWLGLIWGGGDTYYNSPLKSRLTISKDNSKSQVSLKLSSVTAADTAVYYCAKQRTLWGYDLYGMDYWGQGTLVTVSS
VL: DTVVTQSPAFLSVTPGEKVTITCITSTDIDVDMNWYQQKPDQPPKLLISQGNTLRPGVPSRFSSSGSGTDFTFTISSLEAEDAATYYCLQSDNLPLTFGQGTKLEIK
- Potency on Human IL-1β IC50 (pM); inhibition of IL-1β-induced IL-8 production by MRC-5 cells [2]: 303 pM

B3: humanized anti-human IL-1β antibody 1B12.6 (antibody, V domains shown)
VH: EVQLVESGGGLVQPGGSLRLSCAVSGFTLSDYGVSWIRQAPGKGLEWLGLIWGGGDTYYNSPLKSRLTISKDNSKSTVYLQMNSLRAEDTAVYYCAKQRTLWGYDLYGMDYWGQGTLVTVSS
VL: ETTVTQSPSSLSASVGDRVTITCITSTDIDVDMNWYQQKPGKPPKLLISQGNTLRPGVPSRFSSSGSGTDFTFTISSLQPEDFATYYCLQSDNLPLTFGQGTKLEIK
- Potency on Human IL-1β IC50 (pM); inhibition of IL-1β-induced IL-8 production by MRC-5 cells [2]: 378 pM

B4: humanized anti-human IL-1β antibody 1B12.1 (antibody, V domains shown)
VH: EVQLQESGPGLVKPSETLSLTCTVSGFSLSDYGVSWIRQPPGKGLEWLGLIWGGGDTYYNSPLKSRLTISKDNSKSQVSLKLSSVTAADTAVYYCAKQRTLWGYDLYGMDYWGQGTLVTVSS
VL: DTQVTQSPSSLSASVGDRVTITCITSTDIDVDMNWYQQKPGKPPKLLISQGNTLRPGVPSRFSSSGSGTDFTFTISSLQPEDFATYYCLQSDNLPLTFGQGTKLEIK
- Potency on Human IL-1β IC50 (pM); inhibition of IL-1β-induced IL-8 production by MRC-5 cells [2]: 151 pM

B5: humanized anti-human IL-1β antibody 1B12.8 (antibody, V domains shown)
VH: EVQLVESGGGLVQPGGSLRLSCAVSGFTLSDYGVSWIRQAPGKGLEWLGLIWGGGDTYYNSPLKSRLTISKDNSKSTVYLQMNSLRAEDTAVYYCAKQRTLWGYDLYGMDYWGQGTLVTVSS
VL: ETTVTQSPAFLSVTPGEKVTITCITSTDIDVDMNWYQQKPDQPPKLLISQGNTLRPGVPSRFSSSGSGTDFTFTISSLEAEDAATYYCLQSDNLPLTFGQGTKLEIK
notes: Cloned into IgG expression vectors and made as full-length humanized antibody; also called h1B12VH.2a/h1B12VL.2b; combination 8
- Kd [1]: 0.23 nM
- koff [1]: 0.00137 s⁻¹
- kon [1]: 5.94e+06 M⁻¹ s⁻¹
- Potency on Human IL-1β IC50 (pM); inhibition of IL-1β-induced IL-8 production by MRC-5 cells [2]: 484 pM
- EC50 [3]: 0.0479 nM

B6: humanized anti-human IL-1β antibody 1B12.4 (antibody, V domains shown)
VH: EVQLQESGPGLVKPSETLSLTCTVSGFSLSDYGVSWIRQPPGKGLEWLGLIWGGGDTYYNSPLKSRLTISKDNSKSQVSLKLSSVTAADTAVYYCAKQRTLWGYDLYGMDYWGQGTLVTVSS
VL: ETTVTQSPAFLSVTPGEKVTITCITSTDIDVDMNWYQQKPDQPPKLLISQGNTLRPGVPSRFSSSGSGTDFTFTISSLEAEDAATYYCLQSDNLPLTFGQGTKLEIK
notes: Cloned into IgG expression vectors and made as full-length humanized antibody; also called h1B12VH.1a/h1B12VL.2b; combination 4
- Kd [1]: 0.161 nM
- koff [1]: 0.00097 s⁻¹
- kon [1]: 6.01e+06 M⁻¹ s⁻¹
- Potency on Human IL-1β IC50 (pM); inhibition of IL-1β-induced IL-8 production by MRC-5 cells [2]: 597 pM
- EC50 [3]: 0.0378 nM

B7: humanized anti-human IL-1β antibody 1B12.5 (antibody, V domains shown)
VH: EVQLVESGGGLVQPGGSLRLSCAVSGFTLSDYGVSWIRQAPGKGLEWLGLIWGGGDTYYNSPLKSRLTISKDNSKSTVYLQMNSLRAEDTAVYYCAKQRTLWGYDLYGMDYWGQGTLVTVSS
VL: DTQVTQSPSSLSASVGDRVTITCITSTDIDVDMNWYQQKPGKPPKLLISQGNTLRPGVPSRFSSSGSGTDFTFTISSLQPEDFATYYCLQSDNLPLTFGQGTKLEIK
notes: Cloned into IgG expression vectors and made as full-length humanized antibody; also called h1B12VH.2a/h1B12VL.1a; combination 5
- Kd [1]: 0.231 nM
- koff [1]: 0.00144 s⁻¹
- kon [1]: 6.24e+06 M⁻¹ s⁻¹
- Potency on Human IL-1β IC50 (pM); inhibition of IL-1β-induced IL-8 production by MRC-5 cells [2]: 319 pM
- EC50 [3]: 0.0488 nM

B8: humanized anti-human IL-1β antibody 1B12.7 (antibody, V domains shown)
VH: EVQLVESGGGLVQPGGSLRLSCAVSGFTLSDYGVSWIRQAPGKGLEWLGLIWGGGDTYYNSPLKSRLTISKDNSKSTVYLQMNSLRAEDTAVYYCAKQRTLWGYDLYGMDYWGQGTLVTVSS
VL: DTVVTQSPAFLSVTPGEKVTITCITSTDIDVDMNWYQQKPDQPPKLLISQGNTLRPGVPSRFSSSGSGTDFTFTISSLEAEDAATYYCLQSDNLPLTFGQGTKLEIK
notes: Cloned into IgG expression vectors and made as full-length humanized antibody; also called h1B12VH.2a/h1B12VL.2a; combination 7
- Kd [1]: 0.284 nM
- koff [1]: 0.00164 s⁻¹
- kon [1]: 5.76e+06 M⁻¹ s⁻¹
- Potency on Human IL-1β IC50 (pM); inhibition of IL-1β-induced IL-8 production by MRC-5 cells [2]: 581 pM
- EC50 [3]: 0.0582 nM
